We go through one substance from PMC2637916.

Assay [1] addresses Guanylyl cyclase activating protein 1 (GCAP1), recombinant, with the D6S mutation (UniProt P46065). The experiment in a line: pulsed-field gradient diffusion NMR.
Assay [2] has the same target. Briefly: SEC. For orientation: SEC sorts molecules by how far they enter the pores of the column.

One may read the stoichiometry N as a count of units in the complex or per binding partner. In the case of “Guanylyl cyclase activating protein 1 (GCAP1), recombinant, with the D6S mutation (from UniProt P46065 1-205) (natural protein)”, the stoichiometry N in assay [1] and in assay [2] was 2 each time.
